This note sets out measurements from patent US11236367B2, “Fatty acid decarboxylase and its uses” (COMMISSARIAT A L'ENERGIE ATOMIQUE ET AUX ENERGIES …, priority 2016, dated 2022).

Series [1] addresses T1, Chlorella GMC oxidoreductase (Chlorella variabilis, UniProt A0A248QE08).
T1 construct: 6 His-tagged thioredoxin (N, cleaved yes); TEV protease-cleavage site (N, cleaved yes); made in house; host or cells: E. coli BL21-CodonPlus (DE3)-RIL
The series can be described thus: Enzymatic assay with purified recombinant enzyme (GC-MS of products). As to conditions: for fatty acid substrate range of the enzyme: purified recombinant enzyme, white light. The series is classed as biochemical, Chlorella variabilis NC64A. On the procedure:
(§1) All assays were performed in transparent glass vials sealed using caps with septum. Optimum pH was determined using a Teorell Stenhagen universal buffer (33 mM citric acid monohydrate, 33 mM phosphoric acid, 100 mM NaOH, 16.7 mM of boric acid, pH 8.5 adjusted with 1N HCl). Other assays were performed in 100 mM Tris HCl pH 8.5, 100 mM NaCl. Reaction mixtures (500 μL) typically contained 160 nM purified enzyme (stock ? solution 2.5 mg ml^−1) and 400 μM substrate (stock solution 10 mM in ethanol). In some assays, a lipase was used with the alkane synthase. In this case, substrate was a triacylglycerol. Generally, samples were shaken at 200 rpm during 15 min under LED-made white light at 2000 μmol ? photons m^−2s^−1. After the incubations, samples were heated at 95° C. during 15 min to stop the enzymatic reaction. Samples were cooled down and internal standard (hexadecane) was added (45 nmol from a 4.5 mM stock solution in chloroform). NaOH was then added to the reaction mixture (10 μL from a stock solution of 10 M) and samples were vortexed for 5 min. Then 250 μL of hexane was added and samples were vortexed for 5 min to extract alkanes and alkenes. The hexane phase was collected by centrifugation and analyzed by GC-MS-FID. The analysis was done by direct injection of 100 μl of the headspace into a GC-MS. In FIG. 11 activity on 1-^13C-palmitate was monitored by release of ^13CO2 using membrane inlet mass spectrometry. Illuminations were provided by CBT-120 LEDs (Luminous, Billerica) either blue (peak at 460 nm, 25 nm FWHM), or red (peak at 635 nm, 15 nm FWHM) at an intensity of 850 μmol photons m^−2 s^−1.

For series [2], the system named is E. coli cells. The series can be described thus: Hydrocarbon content of E. coli cells expressing algal GMC oxidoreductase. Type of series: cell-based, Escherichia coli. The conditions noted are these: no fatty acid substrate added; absent with empty vector. An excerpt: Chlamydomonas reinhardtii and Phaeodactylum tricornutum Alkane synthase was amplified from a synthetic gene codon-optimized for E. coli using for Chlamydomonas reinhardtii a primer forward 5′-[…]-3′ (SEQ ID No 29) and a primer reverse, 5′-[…]-3′ (SEQ ID No 30). For Phaeodactylum tricornutum, forward primer 5′-[…]-3′ (SEQ ID No 31), reverse primer 5′-[…]-3′ (SEQ ID No 32). Genes were cloned into pLIC07 vector, which introduced downstream of the ATG start codon a cassette coding for a 6 His-tagged thioredoxin and a tobacco etch virus (TEV) protease-cleavage site. E. coli strain expressing the GMC oxidase from Chlorella variabilis NC64A, Chlamydomonas reinhardtii or Phaeodactylum triconutum were grown at 37° C. with agitation at 180 rpm and light at 100 μmole.photon.m^−2·s^−1. When OD reached 0.6, 500 μM of isopropyl β-D-1-thiogalactopyranoside was added. Cells were then grown for 24 hours at 37° C., harvested, transmethylated using methanol added with 5% sulfuric acid and hydrocarbons were extracted with hexane and analyzed by GC-MS as previously described.

Series [3] has as its system E. coli cells. As to the kind of experiment: Co-expression in E. coli of a GMC oxidoreductase and a lipase. The series is classed as cell-based, Escherichia coli. The conditions noted are these: compared to E. coli strains expressing the GMC oxidoreductases alone. On the procedure: E. coli strain transformed with a vector expressing the GMC oxidase from Chlorella variabilis NC64A (or Chlamydomonas reinhardtii) and/or a vector expressing the lipase from the bacterium Staphylococcus hyicus, were grown in TB medium at 37° C. Expression was induced with 1 mM of isopropyl β-D-1-thiogalactopyranoside (added with 0.2% arabinose for co-expression). Cells were then grown overnight at 25° C. at 100 μmole.photon.m^−2·s^−1 and 6 h at 2000 μmole.photon.m^−2·s^−1. Cells were harvested (4 ml at OD=5), transmethylated using methanol added with 5% sulfuric acid and hydrocarbons were analyzed by SPME and GC-MS as previously described.

A further series deals with Chlamydomonas strain. As to the kind of experiment: Hydrocarbons in Chlamydomonas strain with chloroplast genome transformed with the Chlorella enzyme cDNA. Type of series: cell-based, Chlamydomonas reinhardtii. The conditions noted are these: chloroplastic genome transformed with cDNA of the enzyme. On the procedure:
Chlamydomonas reinhardtii CC124 (nit1 nit2; mt−) and Chlamydomonas reinhardtii overexpressing the alkane synthase gene were cultured in minimal medium (Harris, 1989) in one liter photobioreactors (BIOSTAT Aplus, Sartorius Stedim Biotech) operated as turbidostats. A880 was measured continuously using a biomass probe (Excellprobe, Exner) and cultures were maintained at constant A880 by injection of fresh medium. The pH was maintained at a constant value of 7 by injection of KOH (0.2 N) or HCl (0.2 N). The cultures were stirred using a metal propeller (250 rpm). The gas flow rate was adjusted to 0.5 L min^−1. Air enriched with 2% (v/v) CO2 was generated using mass flow meters (EL flow, Bronkhorst). White light was supplied by eight fluorescent tubes (Osram Dulux L 18 W) placed radially around the photobioreactor. We used a blue filter (363 special medium blue, Lee filters, USA) and a red filter (113 magenta, Lee filters, USA) to provide respectively blue and red light. Both lights were at same intensity (35 μmol photons m^−2s^−1).
To quantify hydrocarbons together with fatty acids, transmethylation of whole cells was used. […]

In series [4] the target is T1, Chlorella GMC oxidoreductase. The series can be described thus: 13CO2 release from 1-13C-palmitate with the purified enzyme (membrane inlet mass spectrometry). The series is classed as biochemical, Chlorella variabilis NC64A. As to conditions: CO2 production monitored, light on/off. On the procedure: as §1, with “Then 250 μL of hexane was added and samples were vortexed for 5 min to extract alkanes and alkenes.” left out, “The analysis was done by direct injection of 100 μl of the headspace into a GC-MS.” left out, “Illuminations were provided by CBT-120 LEDs (Luminous, Billerica) either blue (peak at 460 nm, 25 nm FWHM), or red (peak at 635 nm, 15 nm FWHM) at an intensity of 850 μmol photons m^−2 s^−1.” left out
Online measurements of ^12CO2 (m/z=44) and ^13CO2 (m/z=45) were monitored using mass spectrometry (model Prima B, Thermo Scientific). […]

B1: Chlorella GMC oxidoreductase: GMC protein from Chlorella variabilis NC64A; 69 kDa FAD-dependent fatty acid decarboxylase (alkane synthase) (protein, listed as Chlorella variabilis)
chain: RASAVEDIRKVLSDSSSPVAGQKYDYILVGGGTAACVLANRLSADGSKRVLVLEAGPDNTSRDVKIPAAITRLFRSPLDWNLFSELQEQLAERQIYMARGRLLGGSSATNATLYHRGAAGDYDAWGVEGWSSEDVLSWFVQAETNADFGPGAYHGSGGPMRVENPRYTNKQLHTAFFKAAEEVGLTPNSDFNDWSHDHAGYGTFQVMQDKGTRADMYRQYLKPVLGRRNLQVLTGAAVTKVNIDQAAGKAQALGVEFSTDGPTGERLSAELAPGGEVIMCAGAVHTPFLLKHSGVGPSAELKEFGIPVVSNLAGVGQNLQDQPACLTAAPVKEKYDGIAISDHIYNEKGQIRKRAIASYLLGGRGGLTSTGCDRGAFVRTAGQALPDLQVRFVPGMALDPDGVSTYVRFAKFQSQGLKWPSGITMQLIACRPQSTGSVGLKSADPFAPPKLSPGYLTDKDGADLATLRKGIHWARDVARSSALSEYLDGELFPGSGVVSDDQIDEYIRRSIHSSNAITGTCKMGNAGDSSSVVDNQLRVHGVEGLRVVDASVVPKIPGGQTGAPVVMIAERAAALLTGKATIGASAAAPATVAA
On to B1, for which the “dependence of pentadecane production on light intensity” value in series [1] is given as “increases linearly with light intensity”. Besides, the “fatty acid substrate range of the enzyme” value in series [1] was “active on a variety of saturated free fatty acids ranging from C12 to C22 carbons”; in series [1] (listed as Chlorella alkane synthase), “can use C12 to C22 fatty acids”. In the series with E. coli cells [2], the “hydrocarbons formed in E. coli cells expressing the enzyme” value (from here on “hydrocarbons formed”) is “presence of long chain alkanes from 13 to 17 carbons”. In the series with E. coli cells [3], the “increase in most hydrocarbons on co-expression with bacterial lipase (Uniprot P04635)” value is “two to three-fold increase”. Besides, in the series with Chlamydomonas strain, the “change of hydrocarbon content in transformed Chlamydomonas strain” value was “an increase was noted in the heptadecene content, and heptadecane also appeared”. Further, the “dependence of enzyme activity on light” value in series [4] is on record as “stops immediately when light is turned off”.

B2: Chlamydomonas enzyme: GMC oxidoreductase of Chlamydomonas reinhardtii expressed in Escherichia coli (protein, listed as Chlamydomonas reinhardtii)
chain: LSVRAAAGPAGSEKFDYVLVGGGTASCVLANKLSADGNKKVLVLEAGPTGDAMEVAVPAGITRLFAHPVMDWGMSSLTQKQLVAREIYLARGRMLGGSSGSNATLYHRGSAADYDAWGLEGWSSKDVLDWFVKAECYADGPKPYHGTGGSMNTEQPRYENVLHDEFFKAAAATGLPANPDFNDWSHPQDGFGEFQVSQKKGQRADTYRTYLKPAMARGNLKVVIGARATKVNIEKGSSGARTTGVEYAMQQFGDRFTAELAPGGEVLMCSGAVHTPHLLMLSGVGPAATLKEHGIDVVSDLSGVGQNLQDHPAAVLAARAKPEFEKLSVTSEVYDDKCNIKLGAVAQYLFQRRGPLATTGCDHGAFVRTSSSLSQPDLQMRFVPGCALDPDGVKSYIVFGELKKQGRAWPGGITLQLLAIRAKSKGSIGLKAADPFINPAININYFSDPADLATLVNAVKMARKIAAQEPLKKYLQEETFPGERASSDKDLEEYIRRTVHSGNALVGTAAMGASPAAGAVVSSADLKVFGVEGLRVVDASVLPRIPGGQTGAATVMVAERAAALLRGQATIAPSRQPVAV
Regarding B2, the “hydrocarbons formed” value in the series on E. coli cells [2] is “formation in E. coli cells of pentadecane and heptadecane as well as their monounsaturated analogs”. The “increase in most hydrocarbons on co-expression with bacterial lipase (Uniprot P04635)” value in the series with E. coli cells [3] was “two to three-fold increase”.

B3: Phaeodactylum enzyme: GMC oxidoreductase of the diatom Phaeodactylum tricornutum expressed in Escherichia coli (protein, listed as Phaeodactylum tricornutum)
chain: YDYIICGGGLAGCVLAERLSQDESKRVLVLEAGGSDYKSLFIRIPAGVLRLFRSKYDWQHETGGEKGCNGRNVFLQRGKILGGSSCTNVCLHHRGSAEDYNSWNIPGWTATDVLPFFKQSQKDETGRDATFHGADGEWVMDEVRYQNPLSKLFLEVGEAAGLGTNDDFNNWSHPQDGVGRFQVSEVNGERCSGATAFLSKAAKRSNVIVRTGTMVRRIDFDETKTAKGITYDLMGDDTCTTFQACLKEGGEVLVTGGAIASPQLLMCSGIGPGKHLRSLGIPVVHDNSAVGENLQDHPAAVVSFKTPQKGVSVTSKLRLFGKTNPIPVFQWLFFKSGLLTSTGCDHGAFVRTSDSLEQPDLQIRFLAARALGPDGMTTYTKFRTMKTVEDGYSFQSVACRAKSKGRIRLSSSNSHVKPMIDGGYLSNQDDLATLRAGIKLGRMLGNRPEWGEYLGQEVYPGPDVQTDEEIDEYIRNSLHTANALTGTCKMGTGRGAVVGPDLRVIGVNGVRVGDSSVFPCIPGGQTATPTVMIGDRAAVFVRQPVSQLNIEIFREKGGTHPGATTASA
B3: the “hydrocarbons formed” value with E. coli cells [2] is on record as “albeit in lower amounts”.
